Test results published in the Human Domainome abundance scans (Beltran et al. 2025).

B1: LIM and senescent cell antigen-like-containing domain protein 2, residues 13 to 71; numbered along this chain, Q7Z4I7 (parent)
chain: AVCQRCQARFSPAERIVNSNGELYHEHCFVCAQCFRPFPEGLFYEFEGRKYCEHDFQML

Variants of: B1
Assay: abundance fitness (aPCA) (normalised: wild type 0, dead -1); higher = more abundant; growth selection in yeast, the domain comes from the species named
Conditions: Homo sapiens

Abundance fitness, by site and new letter:
E14: H -0.451, W -0.428, P -0.577, I -0.611, G -0.05, F -0.658, M -0.41, C -0.156, R -0.651, D -0.075, T -0.242, S -0.034, L -0.512, A 0.048, V -0.184, N -0.343, Q -0.106, Y -0.224
N20: L -0.136, E -0.282, H 0.087, Y -0.376, M -0.155, K 0.797, A -0.005, R -0.161, F -0.359, D 0.313, T -0.085, S 0.087, P -0.528, I -0.482, Q -0.116, C -0.038, G 0.084
P12: A 0.067, R -0.212, I 0.045, E 0.035, Q -0.126, C 0.188, Y -0.093, M 0.014, D 0.145, N -0.109, G -0.047, H 0.186, T 0.003, S 0.014, F -0.036, L -0.059
S19: T -0.064, K -0.189, G 0.015, V -0.187, F -0.22, L -0.132, H -0.19, I -0.151, W -0.16, A -0.106, Q -0.068, E -0.015, R 0.113, D 0.058, Y -0.455, P -0.29, C -0.117
Y24: Q -0.282, G -0.238, N -0.474, C -0.116, L -0.057, T -0.232, D -0.444, W -0.123, H -0.16, F 0.007, V -0.072, K -0.257, E -0.303, I -0.137
A8: I 0.073, C 0.03, N -0.03, H -0.041, E 0.327, K 0.166, W 0.109, M 0.151, L 0.064, V 0.071, D -0.119, G 0.184, T 0.015, S 0.076, F -0.039, P -0.797, R 0.181, Q 0.147
F10: W -0.523, H -0.343, C -0.139, L 0.05, T -0.093, S -0.475, K -0.548, Y -0.359, M -0.002, N -0.607, I 0.022, P -0.304, A -0.389, Q -0.707, R -0.601, D -1.05
C6: Y -0.732, K -0.469, R -0.544, S -0.804, M -0.34, W -0.769, Q -0.878, N -0.679, P -0.896, T -0.935
E22: Q 0.216, H 0.101, S -0.093, G -0.096, I -0.162, V -0.098, T -0.006, D -0.598, F 0.133, A 0.079, M -0.093, C 0.056, W -0.31, R 0.537, K -0.01, Y -0.08, N 0.053
N18: K -0.411, S -0.333, R -0.202, A -0.227, C -0.089, Y -0.603, M -0.323, D -0.068, W -0.639, G -0.15, L -0.615, Q -0.06, H -0.281, E -0.116, T -0.312, P -0.191, V -0.316, F 0.11, I -0.244
I16: Y -0.2, R -0.114, E -0.341, L -0.023, A -0.1
